According to patent publication US20220073594A1 (NEWSOARA BIOPHARMA, published 2022):
Changes are numbered by the printed parent chain.

How the values were obtained:
[1] = target: T1, SARS-CoV-2 S1 subunit (SARS-CoV-2, UniProt P0DTC2 16-685); assay: ELISA, coated S1 protein, antibody at 1 ug/mL
T1 construct: domain: S1 subunit
Experimental: (§1) Polystyrene microplates (Corning) were coated overnight with 0.1 or 1 μg/mL of SARS-CoV-2 S, S1 or RBD protein (Sino Biological). After washing with PBS containing 0.2% Tween 20, the plates were blocked using 2% BSA (Sigma Aldrich) in PBST for 1 hour at 37° C. Following washing with PBST, testing antibodies (1 ug/mL) were added to each well and incubated at 37° C. for 1 hour. After washing with PBST, HRP-conjugated goat anti-human IgG antibody was added at the dilution of 1:5000 and incubated at 37° C. for 1 hour. After washing, 3,3′,5,5′-Tetramethylbenzidine (TMB) substrate solution was added to the microplate and incubated at room temperature for 6 min, followed by adding 2M H₂SO₄ to stop the reaction. The absorbance was detected at 450 nm.

[2] = target: SARS-CoV-2 RBD protein (receptor-binding domain of the spike protein) (SARS-CoV-2, UniProt P0DTC2 319-541); assay: ELISA, coated RBD protein, antibody at 1 ug/mL
Experimental: as §1

[3] = target: SARS-CoV-2 spike protein (S protein) (SARS-CoV-2, UniProt P0DTC2 16-1213); assay: ELISA, coated S protein, antibody at 1 ug/mL
Experimental: as §1

B1: Antibody 37G2 (antibody, V domains shown)
VH: QVQLVQSGAEVKKPGSSVKVSCKASGGTFSSYAITWVRQAPGQGLEWMGGIIPIFGTANFAQKFQGRVTITADESTSTAYMELSSLRSEDTAVYYCAHLGGFADPFDYWGQGTLVTVSS
VL: EIVLTQSPATLSLSPGERATLSCRASQSVSNYLAWYQQKAGQAPRVLIYDAFNRATGIPARFSGSGSGTDFTLTISSLEPEDFAVYYCQQRSNWPPRITFGQGTRLEIK
[1]
  binding result: no binding (tested: 1 ug/mL)

B2: Antibody 31C2 (antibody, V domains shown)
VH: QVQLVQSGAEVKKPGSSVKVSCKASGGTFSSYAISWVRQAPGQGLEWMGGIIPIFGTTNYAQKFQGRVTITADESTSTAYMELNSLRSEDTAVYYCAGRSAYGDKGYYFDYWGQGTLVTVSS
VL: B1 VL with Y32F, A40P, V46L, F52S, E79Q, R97Q, I98E, R105K, L106V
[1]
  binding result: no binding (tested: 1 ug/mL)

B3: Antibody 15A7 (antibody, V domains shown)
VH: QVQLVQSGAEVKKPGASVKVSCKASGYTFTSYDINWVRQASGQGLEWMGWMNPNSANPGYAQKFQGRVTMTRNTSISTAFMELSSLRSDDTAVYYCARARVTIHYDILTGYYSNAFDIWGQGTMVAVSS
VL: DIQMTQSPSSLSASVGDRVTITCRASQTISSYLNWYQQKPGKAPKLLIYAASSLQSGVPSRFSGSGSGADFTLTISSLQPEDFATYYCQQSYTTFMYTFGQGTMLEIK
[2]
  binding result: binds
[3]
  binding result: binds
[1]
  binding result: binds
